In paper PMC12499500:

Molecular target: drosophila GABAB2 subunit, EM construct (residues 24–790) (Drosophila melanogaster) (UniProt Q9BML6)
Sequence (Q9BML6 entry or part of it): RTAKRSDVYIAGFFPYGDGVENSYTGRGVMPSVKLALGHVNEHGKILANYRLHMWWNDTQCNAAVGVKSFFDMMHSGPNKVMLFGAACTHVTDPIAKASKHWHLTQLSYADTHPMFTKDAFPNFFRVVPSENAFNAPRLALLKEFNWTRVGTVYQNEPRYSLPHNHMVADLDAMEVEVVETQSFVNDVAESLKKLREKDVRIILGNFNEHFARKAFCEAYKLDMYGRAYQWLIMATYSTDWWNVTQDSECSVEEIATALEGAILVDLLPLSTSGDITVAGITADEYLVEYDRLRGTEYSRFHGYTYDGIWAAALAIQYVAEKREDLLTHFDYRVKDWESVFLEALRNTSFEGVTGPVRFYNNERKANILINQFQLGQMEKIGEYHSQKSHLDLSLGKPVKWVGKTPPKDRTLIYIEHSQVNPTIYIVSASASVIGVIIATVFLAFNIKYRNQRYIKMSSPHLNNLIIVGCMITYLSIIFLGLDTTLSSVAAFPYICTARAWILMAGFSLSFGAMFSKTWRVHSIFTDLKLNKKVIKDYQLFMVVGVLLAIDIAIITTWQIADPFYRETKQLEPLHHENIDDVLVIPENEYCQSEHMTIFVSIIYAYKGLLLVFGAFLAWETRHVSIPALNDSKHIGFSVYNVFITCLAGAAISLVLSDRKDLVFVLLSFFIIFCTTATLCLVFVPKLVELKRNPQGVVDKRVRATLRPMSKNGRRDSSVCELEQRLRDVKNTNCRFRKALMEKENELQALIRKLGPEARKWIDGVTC

dGB1^I (V658L) (from UniProt Q9BML7 1-840) (receptor)
basal IP1 accumulation (constitutive activity), HEK293 cells co-transfected with the dGB1 mutant and wild-type dGB2, against the wild-type receptor (% increase in IP1 accumulation): 50

dGB1^I-II (V658L, F659L) (from UniProt Q9BML7 1-840) (receptor)
basal IP1 accumulation (constitutive activity), HEK293 cells co-transfected with the dGB1 mutant and wild-type dGB2, against dGB1^III (% increase in IP1 accumulation): 17

dGB1^I-II-III (V658L, F659L, E666A, H566A) (from UniProt Q9BML7 1-840) (receptor)
basal IP1 accumulation (constitutive activity), HEK293 cells co-transfected with the dGB1 mutant and wild-type dGB2, against dGB1^III (% increase in IP1 accumulation): 22

dGB1^II (F659L) (from UniProt Q9BML7 1-840) (receptor)
basal IP1 accumulation (constitutive activity), HEK293 cells co-transfected with the dGB1 mutant and wild-type dGB2, against the wild-type receptor (% increase in IP1 accumulation): 66

dGB1^III (E666A and H566A) (from UniProt Q9BML7 1-840) (receptor)
basal IP1 accumulation (constitutive activity), HEK293 cells co-transfected with the dGB1 mutant and wild-type dGB2, against the wild-type receptor (% increase in IP1 accumulation): 59
